By Kd is commonly meant the constant that tells how readily two partners part at equilibrium.

Here are results for eight molecules from patent publication US20190177415A1 (PIERRE FABRE MEDICAMENT, published 2019).

Positions count from the first letter of the chain named.

T1: C10orf54 (antigen of the KD values in Table 42) (human, UniProt Q9H7M9 33-311, limits assumed)
T1 sequence: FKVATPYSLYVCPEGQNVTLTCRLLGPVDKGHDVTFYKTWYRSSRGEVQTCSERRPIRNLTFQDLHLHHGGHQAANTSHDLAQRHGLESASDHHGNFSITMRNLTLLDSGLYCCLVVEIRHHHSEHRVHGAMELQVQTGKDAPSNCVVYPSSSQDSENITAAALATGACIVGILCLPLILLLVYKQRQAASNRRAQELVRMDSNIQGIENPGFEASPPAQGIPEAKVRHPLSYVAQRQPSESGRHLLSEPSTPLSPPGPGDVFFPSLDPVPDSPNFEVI

T2: chimeric C10orf54: human IgV with mouse STALK (construct CC5) (human/mouse chimera)
T2 construct: also called C10orf54 Construct 5; hsIGVmmSTALK
T2 chain: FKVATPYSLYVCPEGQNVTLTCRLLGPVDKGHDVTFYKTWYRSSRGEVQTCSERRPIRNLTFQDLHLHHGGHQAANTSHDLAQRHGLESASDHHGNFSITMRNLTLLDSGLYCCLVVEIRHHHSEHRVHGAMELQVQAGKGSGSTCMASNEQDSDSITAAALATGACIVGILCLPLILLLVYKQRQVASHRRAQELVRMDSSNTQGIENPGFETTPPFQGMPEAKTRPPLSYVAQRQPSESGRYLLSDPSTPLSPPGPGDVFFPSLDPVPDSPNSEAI

T3: full length cynomolgus monkey C10orf54 (construct CC4) (cynomolgus monkey, UniProt Q9H7M9 33-311 (human entry))
T3 construct: also called C10orf54 Construct 4
T3 chain: T1 sequence with P6L, L24V, L25F, N145S, V148A, D155E, I205T, P217S, P223L, S251G

T4: chimeric C10orf54: first half of IgV mouse and remainder (including loop) human (construct CC8) (human/mouse chimera, UniProt Q9H7M9 33-311)
T4 construct: also called C10orf54 Construct 8; mmabChsC10
T4 chain: T1 sequence with A4T, V18A, L24I, D29S, F36I, R42L, T50M

B1: murine monoclonal antibody 53A (antibody, V domains shown)
VH: EVQLQQSGPELVKPGASVKMSCKASGYTFTSYFMHWVKQKPGQGLEWIGYIYPYNDGTKYNEKFKGKATLTSDKSSSTAYMELSSLTSEDSAVYYCARFDYDTLRYWGQGTTLTVSS
VL: DVVLTQTPLSLPVNIGDQASISCKSTKSLLNSDGFTYLDWYLQKPGQSPQLLIYLVSNRFSGVPDRFSGSGSGTDFTLKISRVEAEDLGVYYCFQSNYFPWTFGGGTKLEIK
notes: Mouse hybridoma antibody
B2: murine monoclonal antibody 259A (antibody, V domains shown)
VH: B1 VH with E82D
VL: B1 VL with V56I
notes: Mouse hybridoma antibody
B3: murine monoclonal antibody 39A (antibody, V domains shown)
VH: QVQLQQSGAELMKPGASVKISCKATGYTFSSNWIEWVKQRPGHGLEWIGEILPGSGSTSYNEKFKGKATFTADTSSNTAYMQLSSLTSEDSAVYYCARWLLYYYAMDYWGQGTSVTVSS
VL: DVLMTQTPLSLPVSLGDPASISCRSSQSIVHNNGNTYLEWYLQKPGQSPKLLIYKVSNRFSGVPDRFSGSGSGTDFTLKISRVEAEDLGVYYCFQGSHVPYTFGGGTKLEIK
notes: Mouse hybridoma antibody
B4: murine monoclonal antibody 76E1 (antibody, V domains shown)
VH: EVQLLQSGPELEKPGASVKISCKASGYSFTGYNMNWVKQSNGKSLEWIGNIDPYYDYTSYNLKFKDKATLTVDKSSSTAYMQLKSLTSEDSAVYYCATSTMITPFDYWGQGTTLTVSS
VL: B3 VL with P18Q, N32S, S81N, Y101W
notes: Mouse hybridoma antibody
B5: murine monoclonal antibody 124A (antibody, V domains shown)
VH: B3 VH with I48M, Y108F
VL: B3 VL with P18Q
notes: Mouse hybridoma antibody
B6: murine monoclonal antibody 46A (antibody, V domains shown)
VH: QVQLQQAGGELVRPGVSVKISCKGSGYTFTDYGMHWVKQSHAKSLEWIGIINTYYGDATYNQKFKGKATMTVDKSSSTAYMELARLTSEDSAIYYCARRAGTAMDYWGQGTSVTVSS
VL: SIVMTQTPKFLLVSAGDRVTITCKASQSVSNDVAWYQQKPGQSPKLLIYYASNRYTGVPDRFTGSGYGTDFTFTISTVQAEDLAVYFCQQDYGSPRTFGGGTKLEIK
notes: Mouse hybridoma antibody
B7: murine monoclonal antibody 97A (antibody, V domains shown)
VH: B6 VH with A7S, G9A, I50V, N52D, T59S, Y60N, T102N
VL: B6 VL with T20A
notes: Mouse hybridoma antibody
B8: murine monoclonal antibody 215A (antibody, V domains shown)
VH: EVQLQQSGPELVKPGASMKISCKASGFSFTGYTMNWVKQSHGKNLEWIGLISPYNGGTSYNQKFKGKATLTVDKSSSTAYMELLSLTSEDSAVYYCARRAYGYAMDYWGQGTSVTVSS
VL: QIVLTQSPAIMSASPGEKVTMTCSASSSVSYMFWYQQKPGSSPRLLIYDTSNLASGVPLRFSGSGSGTSYSLTISRMEAEDAATYYCQQWSSYPFTFGSGTKLEIK
notes: Mouse hybridoma antibody

For one experiment, the target named is T1, C10orf54 (antigen of the KD values in …). Description: method and antigen form not stated.
In turn, B1 registered a Kd of 0.321 nM.
On the same count and under the same terms, the result for B2 reads 0.266 nM; that for B3, 5.79 nM; that for B4, 10.1 nM.
Still for that read-out and setting: next, B5: 3.61 nM.
As to B6, the Kd worked out at 1.88 nM.
Still for that read-out and setting: next, B7: 1.99 nM.
In turn, B8 had a dissociation constant (Kd) of 1.52 nM.

The target of a further experiment is T2, chimeric C10orf54: human IgV with mouse …. Description: flow cytometry, transfected 293t cells, 2 ug/ml; stain = MFI >=20-fold over isotype control. As for the experimental part: (§1) To investigate epitope diversity of the anti-human C10orf54 antibodies, 293t cells were transfected with 1 of 10 different C10orf54 expression constructs that co-express a fluorescent marker. Two days after transfection, cells were stripped from the tissue culture plate, stained with 2 μg/ml anti-human C10orf54 antibody , washed, stained with anti-mouse IgG-Fc Alexa Fluor 647 polyclonal antibody, washed, and stained with the viability dye 4′,6-Diamidino-2-Phenylindole, Dihydrochloride. Upon acquisition of 10,000 live events on a flow cytometer, live cells marked with the fluorescent marker were analyzed for the degree of staining by the anti-human C10orf54 antibody. When the median fluorescence intensity fold-change relative to an isotype control antibody was at least 20-fold, the antibody was considered to stain the C10orf54 expression construct in question.
As to B1, the binding result is “binds”.
Still for that read-out and setting: the result for B2 reads “binds”; that for B3, “binds”; that for B4, “binds”.
Still for that read-out and setting: next, B5: “binds”; B8: “binds”.

Another experiment deals with T3, full length cynomolgus monkey C10orf54 …. The experiment is described as above. As for the experimental part:
as §1
For the molecule B1, the binding result was “binds”.
Same read-out and setting: next, B2: “binds”; B3: “binds”.
On the same count and under the same terms, the result for B4 reads “binds”; that for B5, “binds”.
The same measure, in the same setting: the result for B6 reads “binds”; that for B8, “binds”.

For the next experiment, the target named is T4, chimeric C10orf54: first half of IgV …. Described as above. As for the experimental part:
as §1
Turning to B1, the binding result is recorded as “binds”.
Same read-out and setting: the result for B2 reads “binds”; that for B3, “binds”.
On the same count and under the same terms, the result for B4 reads “binds”; that for B5, “binds”.
Same read-out and setting: next, B6: “binds”.
For the molecule B8, the binding result is given as “binds”.
